Measured values from patent publication US20130040837, “APTAMER CELL COMPOSITIONS” (BRIGHAM AND WOMEN'S HOSPITAL, INC., published 2013).

Key:
[1] = molecular target: T1, L-selectin (UniProt P14151 P14151:39-332); test: static adhesion normalised to L-Aptamer-MSC; PBS-MSC background 6.4±1.78; conditions: tags: coated on surface; label: 3'-biotin
T1 sequence: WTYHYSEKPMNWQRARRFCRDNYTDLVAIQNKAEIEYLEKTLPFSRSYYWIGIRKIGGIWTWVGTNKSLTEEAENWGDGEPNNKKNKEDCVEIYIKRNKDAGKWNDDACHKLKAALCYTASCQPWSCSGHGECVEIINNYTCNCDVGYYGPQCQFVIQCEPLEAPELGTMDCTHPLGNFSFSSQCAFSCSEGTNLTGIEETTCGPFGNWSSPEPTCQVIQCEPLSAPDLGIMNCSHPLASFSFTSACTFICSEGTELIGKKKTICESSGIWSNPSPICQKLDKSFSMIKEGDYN
Description: After we confirmed the successful conjugation and the availability of aptamers on the MSC surface, we investigated the interactions between L-Aptamer-MSCs and L-selectin coated surfaces under both static and flow conditions. For the static adhesion assay, aptamer modified and unmodified MSCs were incubated with L-selectin coated surfaces for 10 minutes, and unbound cells were then removed through rinsing.

[2] = molecular target: T2, PDGF-BB (platelet-derived growth factor) (UniProt P01127 P01127:82-190); test: Cy3 quenched and Cy5 enhanced with 10 nM PDGF; solution in PBS and on MSCs in PBS, PBS with Ca/Mg and medium; conditions: chain copies: 2 (inferred); label: 5'-Cy5; complementary strand 5'-biotin, internal Cy3
[3] = molecular target: P-selectin (UniProt P16109 P16109:42-771); test: specificity control, static adhesion normalised to L-Aptamer-MSC on L-selectin; conditions: tags: P-selectin-Fc, coated on surface; chain copies: 2; label: 5'-biotin
[4] = molecular target: T2, PDGF-BB (platelet-derived growth factor); test: fluorescence quenching by flow cytometry on beads and MSCs, 10 nM PDGF; detection range several hundred pM to low nM on cells in PBS; best in PBS, then PBS with 0.9 mM CaCl2 and 0.5 mM MgCl2, then medium; conditions: chain copies: 2 (inferred); label: 5'-FAM; complementary strand 5'-biotin, 3'-dabcyl
Description: FIGS. 11C-11D are bar graphs depicting the performance of sensors 1 and 2 immobilized on streptavidin beads for detection of PDGF in PBS (11C) and PBS with 0.9 mM CaCl₂ and 0.5 mM MgCl₂ (11D) were studied by flow cytometry. Upon adding PDGF (10 nM), the FAM green signal is quenched. Sensor 2 functions better than sensor 1 in PBS with and without Ca/Mg.
A PDGF aptamer sensor was synthesized with FAM at the 5′ end of the aptamer and a quencher, dabcyl, at the 3′ end of the complementary strand, with a biotin molecule attached at the other end (FIG. 11A). Upon binding to the target PDGF, the aptamer undergoes a conformational change which brings FAM and dabcyl closer to each other and the fluorescence of FAM is quenched. One base pair C-G of the aptamer sensor was eliminated by changing a C base to A base (FIG. 11B). Therefore, sensor 2 has less nonspecific folding and better performance in the presence of divalent metal ions than sensor 1. Sensor 1 and 2 were immobilized on streptavidin beads, and their performances in PBS (FIG. 11C) and PBS with Ca/Mg (FIG. 11D) were studied by flow cytometry and microscopy (FIGS. 12A-12B). Upon adding PDGF (10 nM), the FAM green signal was quenched. Sensor 2 functioned better than sensor 1 in PBS with and without Ca/Mg.

[5] = molecular target: T1, L-selectin; test: specificity control, P-Aptamer-MSC on L-selectin; conditions: tags: coated on surface; label: 5'-biotin

T2 sequence (P01127 82-190, one chain of several): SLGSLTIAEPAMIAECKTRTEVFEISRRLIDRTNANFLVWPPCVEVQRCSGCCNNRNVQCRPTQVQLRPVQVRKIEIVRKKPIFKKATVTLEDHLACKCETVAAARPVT
P-selectin, sequence (P16109 42-771, one chain of several): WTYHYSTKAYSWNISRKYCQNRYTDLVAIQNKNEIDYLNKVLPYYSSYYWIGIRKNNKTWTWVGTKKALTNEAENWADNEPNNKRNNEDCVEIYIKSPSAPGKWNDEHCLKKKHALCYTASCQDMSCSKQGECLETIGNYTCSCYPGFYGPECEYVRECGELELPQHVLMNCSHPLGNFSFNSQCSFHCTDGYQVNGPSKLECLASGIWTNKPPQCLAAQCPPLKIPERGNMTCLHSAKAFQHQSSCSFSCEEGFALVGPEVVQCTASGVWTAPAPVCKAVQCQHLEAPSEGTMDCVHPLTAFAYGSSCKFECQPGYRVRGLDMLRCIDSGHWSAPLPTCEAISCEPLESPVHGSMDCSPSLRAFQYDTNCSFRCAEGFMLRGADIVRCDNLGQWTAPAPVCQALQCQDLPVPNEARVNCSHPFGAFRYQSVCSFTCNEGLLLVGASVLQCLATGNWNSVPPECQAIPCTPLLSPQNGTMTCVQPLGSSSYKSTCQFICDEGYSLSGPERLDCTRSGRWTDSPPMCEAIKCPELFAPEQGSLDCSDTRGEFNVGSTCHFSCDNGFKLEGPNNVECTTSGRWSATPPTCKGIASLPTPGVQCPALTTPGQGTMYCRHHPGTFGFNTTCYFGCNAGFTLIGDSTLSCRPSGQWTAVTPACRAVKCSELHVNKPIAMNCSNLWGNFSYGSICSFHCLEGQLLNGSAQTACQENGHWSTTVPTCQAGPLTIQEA

B1: scrambled sequence control DNA (ssDNA)
DNA: GATGTAGGGACAGTCAAATGGAGTGGTTCAACCGCCCATCTTCAACAAT
Question: Does B1 bind [1]?
Answer: no binding

B2: PDGF FRET sensor 5 (structured_DNA)
DNA 1: AAGGCTACGGCACGTAGAGCATCACCATGATCCTGTGTGGTCTGTGTCG
DNA 2: CGACACAGACCACA
Question: Does B2 bind [2]?
Answer: binds

B3: L-selectin aptamer (ssDNA)
DNA: TAGCCAAGGTAACCAGTACAAGGTGCTAAACGTAATGGCTTCGGCTTAC
modifications: 3' inverted T
Question: Does B3 bind [3]?
Answer: no binding

B4: PDGF quench sensor 2 (structured_DNA)
DNA 1: AAGGCTACGGCACGTAGAGCATCACCATGATCCTGTGTGGTCTATGTCGTCGTTCG
DNA 2: CGAACGACGACATAGACCACA
Question: Does B4 bind [4]?
Answer: binds

B5: P-selectin aptamer (ssRNA)
RNA: CUCAACGAGCCAGGAACAUCGACGUCAGCAAACGCGAG
modifications: 2'-F on C and U
Question: Does B5 bind [5]?
Answer: no binding
